According to PMC6499331, “Transcriptional gene silencing requires dedicated interaction between HP1 protein Chp2 and chromatin remodeler Mit1” (Genes & Development, 2019):

T1: StrepSumo-tagged Mit1CII wild type (S. pombe, UniProt Q9P793 1-81)
T1 construct: The Strep-SUMO tag was left on for stabilization; also called wild-type Mit1CII; source: E. coli BL21(DE3) or Rosetta (DE3), purified (Streptactin, SEC); not shown: Strep-SUMO, N-terminal, kept
T1 sequence (looked up): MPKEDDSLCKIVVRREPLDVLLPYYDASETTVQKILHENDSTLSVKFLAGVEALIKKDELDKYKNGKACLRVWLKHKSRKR

T2: StrepSumo-tagged Mit1CII with engineered PkVvL motif instead of CkIvV (S. pombe, UniProt Q9P793 1-81, PkVvL motif instead of CkIvV)
T2 construct: Mit1, S. pombe, CII, residues 1-81; residues 9-13 CKIVV changed to PKVVL; also called Mit1 PxVxL substitution mutant; PxVxL substitution; source: E. coli BL21(DE3) or Rosetta (DE3), purified (Streptactin, SEC); not shown: Strep-SUMO, N-terminal, kept
T2 sequence (looked up): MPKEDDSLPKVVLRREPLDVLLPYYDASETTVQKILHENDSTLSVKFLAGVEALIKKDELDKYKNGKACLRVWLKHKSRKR

T3: StrepSumo-tagged Mit1CII I11R (S. pombe, UniProt Q9P793 1-81, I11R)
T3 construct: Mit1, S. pombe, CII, residues 1-81, I11R; also called Mit1I11R; Mit1 I11R; source: E. coli BL21(DE3) or Rosetta (DE3), purified (Streptactin, SEC); not shown: Strep-SUMO, N-terminal, kept
T3 sequence (looked up): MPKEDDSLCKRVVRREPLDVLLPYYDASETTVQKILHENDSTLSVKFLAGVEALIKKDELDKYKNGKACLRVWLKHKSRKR

T4: Mit1(1-81), Chp2 interaction interface (CII), tag removed (S. pombe, UniProt Q9P793 1-81)
T4 construct: Mit1, S. pombe, residues 1-81 (CkIvV motif 9-13, linker 15-31, CD-like domain); Density is seen for residues 8-81; also called Mit1CII; source: E. coli BL21(DE3) or Rosetta (DE3), coexpressed with Chp2CSD, purified as a complex (Streptactin, Ulp1, SEC); not shown: Strep-SUMO, N-terminal, cleaved
T4 sequence (looked up): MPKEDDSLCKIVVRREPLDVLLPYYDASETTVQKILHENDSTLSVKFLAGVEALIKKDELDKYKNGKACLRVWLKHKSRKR


Experiments:
[1] = target: T1, StrepSumo-tagged Mit1CII wild type; test: ITC; 25°C; 400 mM NaCl, 50 mM Tris-HCl pH 7.5, 5 mM β-mercaptoethanol; Chp2 or Swi6 at 100 to 500 µM injected into the cell holding StrepSumo-tagged Mit1 constructs at 5 to 50 µM; VP-ITC or Nano ITC (Mit1CIIΔCDL); conditions: both partners purified
[2] = target: T2, StrepSumo-tagged Mit1CII with …; test: as above; conditions: both partners purified
[3] = target: T3, StrepSumo-tagged Mit1CII I11R; test: as above; conditions: both partners purified
[4] = target: StrepSumo-tagged Mit1CIIΔCDL (S. pombe); test: as above
[5] = target: the molecule itself; test: crystal structure; Mit1(1-81)–Chp2(316-380), coexpressed in E. coli, purified as a complex; hanging drops at 18°C, 2.4 M sodium malonate pH 7, 3% 1,6-hexanediol; 1.6 Å
[6] = target: T4, Mit1(1-81), Chp2 interaction interface …; test: as above; conditions: both partners purified

| Kd [1] [µM] | Kd [2] [µM] | Kd [3] [µM] | Kd [4] [µM] | stoichiometry N [6] [Chp2CSD chains per Mit1] | Binder | stoichiometry N [5] |
| --- | --- | --- | --- | --- | --- | --- |
| 28 | 15 |  |  |  | Swi6CSD (domain or fragment, S. pombe, UniProt P40381 267-328, looked up, Swi6, HP1 protein, S. pombe, chromoshadow domain (CSD); A crystal structure of the free Swi6CSD dimer (PDB 1E0B) is cited; also called Swi6 chromoshadow domain; source: E. coli BL21(DE3) or Rosetta (DE3), purified (Streptactin, on-column Ulp1 cleavage, SEC); not shown: Strep-SUMO, N-terminal, cleaved) DSWEDLVSSIDTIERKDDGTLEIYLTWKNGAISHHPSTITNKKCPQKMLQFYESHLTFRENE |  |
| 0.0026 | 0.0082 | 21.5 | 2.2 |  | Chp2CSD (expressed alone, tag removed, for ITC) (domain or fragment, S. pombe, Chp2, S. pombe, chromoshadow domain (CSD); limits 316-380 are printed for the crystallised CSD construct, not for the ITC sample; source: E. coli BL21(DE3) or Rosetta (DE3), purified (Streptactin, Ulp1, MonoS); not shown: Strep-SUMO, N-terminal, cleaved) KPPFQKKSWEDLVDCVKTVQQLDNGKLIAKIKWKNGYVSTHDNIIIHQKCPLKIIEYYEAHIKFT |  |
|  |  |  |  | 2 | Chp2CSD, Chp2(316-380), untagged, coexpressed with Mit1 fragments (domain or fragment, S. pombe, UniProt O42934 316-380, looked up, Chp2, S. pombe, chromoshadow domain, residues 316-380; Cloned without tag into pACE2 for coexpression; Limits 316-380 are printed for the crystallised complex; also called chromo shadow domain of Chp2; Chp2CSD2; source: E. coli BL21(DE3) or Rosetta (DE3), coexpressed with Mit1 fragments, purified as a complex) KPPFQKKSWEDLVDCVKTVQQLDNGKLIAKIKWKNGYVSTHDNIIIHQKCPLKIIEYYEAHIKFT | 2 |
